From publication PMC6237815, “Structural insights into DNA degradation by human mitochondrial nuclease MGME1”
Numbering of substitutions follows the chain as printed.

T1: HsMGME1 WT (Homo sapiens, UniProt Q9BQP7 21-344)
T1 sequence: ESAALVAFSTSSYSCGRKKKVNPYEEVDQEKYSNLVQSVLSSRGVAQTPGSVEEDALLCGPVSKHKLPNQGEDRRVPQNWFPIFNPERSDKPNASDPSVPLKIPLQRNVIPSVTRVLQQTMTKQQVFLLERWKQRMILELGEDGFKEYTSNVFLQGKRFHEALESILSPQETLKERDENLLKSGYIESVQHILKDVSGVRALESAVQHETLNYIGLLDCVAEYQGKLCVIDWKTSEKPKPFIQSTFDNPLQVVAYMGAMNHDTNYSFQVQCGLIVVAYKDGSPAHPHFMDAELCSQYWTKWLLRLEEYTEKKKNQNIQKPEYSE

T2: HsMGME1 H180Q (Homo sapiens, UniProt Q9BQP7 21-344, H180Q)
T2 sequence: T1 sequence with H160Q

B1: DNA3 (mixed)
DNA 1: GGATCCTTCTTCTTCTTC
DNA 2: GGATCCTTCTTCTTCTTC
B2: ssDNA2 (ssDNA)
DNA: AACAACAACAAC

Experiments:
HsMGME1 WT [1] = target: T1, HsMGME1 WT; test: crystal structure (Se-SAD and native); three of four molecules contact only the 3' overhang, one contacts duplex and overhang; No solution binding assay; crystals at 18 C, protein 10 mg/ml in 20 mM Tris pH 8.0, 200 mM NaCl, 1 mM DTT, protein:DNA 1:1.2; DNA2: phosphate-citrate pH 4.2, 20% PEG300; H180Q-DNA2-Ca2+: 0.1 M CHES pH 9.5, 20% PEG 8000; DNA3: 0.1 M HEPES pH 7.5, 0.8 M NaH2PO4, 0.8 M K2HPO4; details: protein: recombinant; tags: none expected (His-SUMO removed by Ulp1); self-complementary 6-bp duplex GGATCC, 3' overhang 12 nt on both strands; 2 copies of the strand
HsMGME1 H180Q = target: T2, HsMGME1 H180Q; test: crystal structure; one Ca2+ at A-site; acetate; 30 mM CaCl2 in sample; No solution binding assay; crystals at 18 C, protein 10 mg/ml in 20 mM Tris pH 8.0, 200 mM NaCl, 1 mM DTT, protein:DNA 1:1.2; DNA2: phosphate-citrate pH 4.2, 20% PEG300; H180Q-DNA2-Ca2+: 0.1 M CHES pH 9.5, 20% PEG 8000; DNA3: 0.1 M HEPES pH 7.5, 0.8 M NaH2PO4, 0.8 M K2HPO4; details: protein: recombinant; tags: none expected (His-SUMO removed by Ulp1); single strand
HsMGME1 WT [2] = target: T1, HsMGME1 WT; test: crystal structure (1.75 A); CaCl2 in the sample (10 mM), but no Ca2+ bound at the active site; No solution binding assay; crystals at 18 C, protein 10 mg/ml in 20 mM Tris pH 8.0, 200 mM NaCl, 1 mM DTT, protein:DNA 1:1.2; DNA2: phosphate-citrate pH 4.2, 20% PEG300; H180Q-DNA2-Ca2+: 0.1 M CHES pH 9.5, 20% PEG 8000; DNA3: 0.1 M HEPES pH 7.5, 0.8 M NaH2PO4, 0.8 M K2HPO4; details: protein: recombinant; tags: none expected (His-SUMO removed by Ulp1); single strand

Binder | binding result (HsMGME1 WT [1]) | binding result (HsMGME1 H180Q) | binding result (HsMGME1 WT [2])
B1 | binds | – | –
B2 | – | binds | binds
